Test results as given in US20220332804A1 (CSL INNOVATION, published 2022).
Each block holds one binder with its values, some of them ahead of it.

Tests used:
[1] = biological target: T1, human complement C2 zymogen (human, UniProt P06681 21-752); assay: SPR steady state, captured antibody, analyte huC2 0 mM Ca^2+, pH 6.0
T1 construct: also called huC2; human C2
T1 sequence: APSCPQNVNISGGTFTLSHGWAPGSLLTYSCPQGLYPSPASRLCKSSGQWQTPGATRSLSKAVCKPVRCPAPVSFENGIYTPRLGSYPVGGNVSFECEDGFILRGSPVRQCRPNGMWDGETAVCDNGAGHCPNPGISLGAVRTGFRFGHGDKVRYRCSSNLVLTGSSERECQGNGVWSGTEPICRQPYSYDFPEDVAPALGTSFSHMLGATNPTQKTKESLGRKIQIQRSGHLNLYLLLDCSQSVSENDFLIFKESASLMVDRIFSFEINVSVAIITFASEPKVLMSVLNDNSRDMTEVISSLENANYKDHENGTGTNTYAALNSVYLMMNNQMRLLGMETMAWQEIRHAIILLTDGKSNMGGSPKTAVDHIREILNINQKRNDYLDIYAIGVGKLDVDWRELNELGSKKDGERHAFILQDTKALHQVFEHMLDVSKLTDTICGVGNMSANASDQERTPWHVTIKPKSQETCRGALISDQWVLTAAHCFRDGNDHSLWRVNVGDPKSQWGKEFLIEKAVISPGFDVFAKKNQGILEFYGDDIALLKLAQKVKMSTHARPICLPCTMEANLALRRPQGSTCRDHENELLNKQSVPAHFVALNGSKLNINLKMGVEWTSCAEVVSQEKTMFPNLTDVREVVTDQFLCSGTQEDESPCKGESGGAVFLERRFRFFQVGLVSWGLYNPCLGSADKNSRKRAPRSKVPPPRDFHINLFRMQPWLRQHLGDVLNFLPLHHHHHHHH

[2] = biological target: T1, human complement C2 zymogen; assay: SPR kinetics, captured antibody, analyte huC2 200 mM Ca^2+ (so in the source), pH 7.3
Description: (§1) Surface plasmon resonance (SPR, Biacore) was used for all binding affinity analyses. In brief, goat anti-human IgG was directly immobilised onto the carboxymethyl dextran surface of CM5 sensorchips to approximately 12,000 RU using standard NHS/EDC chemistry at pH 5. The immobilised antibody surface was pre-conditioned with ten injections of polyclonal human IgG (Privigen 60 s) prepared at 1 μg/mL. Ligands (anti-C2 mAbs) were captured at the beginning of each cycle as described below. An adjacent spot or flow cell in which only Polyclonal IgG was capture was used as a reference surface. The goat anti-human IgG Fc antibody surface was regenerate in 100 mM H3PO4, injected for 45 seconds at the end of each cycle. Experiments were performed at 37° C. and the flow rate of each experiment was kept constant at 30 μL/min.

[3] = biological target: T2, cynomolgus monkey FcRn/β2m (cynomolgus monkey, UniProt Q8SPV9 24-297; Q8SPW0 21-119, limits assumed); assay: SPR, immobilised antibody, cyno FcRn/b2m analyte, pH 6.0
T2 construct: injected in solution over immobilised antibody; also called Cyno FcRn/β2m
T2 sequence (Q8SPV9 24-297 limits assumed, chain 1 of 2): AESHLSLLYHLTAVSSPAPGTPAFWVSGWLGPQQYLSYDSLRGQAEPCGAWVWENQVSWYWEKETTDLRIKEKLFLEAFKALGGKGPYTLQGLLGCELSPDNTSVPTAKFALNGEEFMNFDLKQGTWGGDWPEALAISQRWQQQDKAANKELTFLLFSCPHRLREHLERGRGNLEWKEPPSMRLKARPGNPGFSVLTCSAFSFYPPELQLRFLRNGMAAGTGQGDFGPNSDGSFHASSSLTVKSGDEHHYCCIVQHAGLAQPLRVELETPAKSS
T2 sequence (Q8SPW0 21-119 limits assumed, chain 2 of 2): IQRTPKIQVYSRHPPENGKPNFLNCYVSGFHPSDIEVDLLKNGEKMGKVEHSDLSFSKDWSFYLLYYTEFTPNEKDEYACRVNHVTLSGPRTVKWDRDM
Description: (§2) Anti-C2 mAbs (1 μg/mL at pH 5) were immobilized on a carboxylmethyldextran (CM5) sensorchip surface using standard EDC/NHS chemistry. Human and Cyno FcRn/β2m (40 μM) were prepared in running buffer (10 mM HEPES, 150 mM NaCl, 10 mM MES adjusted to either pH 6 or pH 7.3) and injected on the immobilized anti-C2 surface at concentrations ranging from 0.078 to 40 μM, prepared in two-fold dilutions in running buffer. Association and dissociation phases were monitored for 180 and 600 seconds, respectively. […] Double referenced sensorgrams were fitted to either a 1:1 kinetic model (pH 6), including a term for mass transport limitation or to a 1:1 steady state model (pH 7.3) where responses at the end of the association phase were plotted against respective concentrations.
(§3) Binding to both human and cynomolgus monkey FcRn was tested using the SPR methods described above.

[4] = biological target: T1, human complement C2 zymogen; assay: SPR kinetics, captured antibody, analyte huC2 (so in the source), pH 7.3
Description: as §1

[5] = biological target: T1, human complement C2 zymogen; assay: SPR kinetics, captured antibody, analyte huC2 20 mM Ca^2+ (so in the source), pH 7.3
Description: as §1

[6] = biological target: T1, human complement C2 zymogen; assay: SPR kinetics, captured antibody, analyte huC2 0 mM Ca^2+, pH 7.3
Description: as §1

[7] = biological target: T1, human complement C2 zymogen; assay: SPR steady state, captured antibody, analyte huC2 200 mM Ca^2+ (so in the source), pH 6.0
[8] = biological target: T2, cynomolgus monkey FcRn/β2m; assay: SPR, immobilised antibody, cyno FcRn/b2m analyte, pH 7.3
Description: as §2, §3

[9] = biological target: T1, human complement C2 zymogen; assay: SPR steady state, captured antibody, analyte huC2 2000 mM Ca^2+ (so in the source), pH 6.0
[10] = biological target: T1, human complement C2 zymogen; assay: SPR kinetics, captured antibody, analyte huC2 2000 mM Ca^2+ (so in the source), pH 7.3
Description: as §1

[11] = biological target: T1, human complement C2 zymogen; assay: SPR steady state, captured antibody, analyte huC2 20 mM Ca^2+ (so in the source), pH 6.0
[12] = biological target: T1, human complement C2 zymogen; assay: SPR steady state, captured antibody, analyte huC2 0 mM Ca^2+, pH 6.0; remark: listed apart in the source
[13] = biological target: T1, human complement C2 zymogen; assay: SPR kinetics, captured antibody, analyte huC2 200 mM Ca^2+ (so in the source), pH 7.3; remark: listed apart in the source
Description: as §1

[14] = biological target: T1, human complement C2 zymogen; assay: SPR kinetics, captured antibody, analyte huC2 2000 mM Ca^2+ (so in the source), pH 7.3; remark: listed apart in the source
Description: as §1

[15] = biological target: T1, human complement C2 zymogen; assay: SPR steady state, captured antibody, analyte huC2 200 mM Ca^2+ (so in the source), pH 6.0; remark: listed apart in the source
[16] = biological target: T1, human complement C2 zymogen; assay: SPR kinetics, captured antibody, analyte huC2 2 mM Ca^2+ (so in the source), pH 7.3
Description: as §1

[17] = biological target: T1, human complement C2 zymogen; assay: SPR steady state, captured antibody, analyte huC2 20 mM Ca^2+ (so in the source), pH 6.0; remark: listed apart in the source
[18] = biological target: T1, human complement C2 zymogen; assay: SPR kinetics, captured antibody, analyte huC2 20 mM Ca^2+ (so in the source), pH 7.3; remark: listed apart in the source
Description: as §1

[19] = biological target: T1, human complement C2 zymogen; assay: SPR steady state, captured antibody, analyte huC2 2000 mM Ca^2+ (so in the source), pH 6.0; remark: listed apart in the source
[20] = biological target: T1, human complement C2 zymogen; assay: SPR kinetics, captured antibody, analyte huC2 0 mM Ca^2+, pH 7.3; remark: listed apart in the source
Description: as §1

Kd [1]: 84 nM
Kd [2]: 9.2 nM
koff [2]: 0.00527 s⁻¹
kon [2]: 573000 M⁻¹ s⁻¹
Kd [3]: 19 nM
kon [4]: 538000 M⁻¹ s⁻¹
Kd [5]: 8.8 nM
koff [5]: 0.00516 s⁻¹
kon [5]: 585000 M⁻¹ s⁻¹
Kd [6]: 8.7 nM
koff [6]: 0.00521 s⁻¹
kon [6]: 601000 M⁻¹ s⁻¹
Kd [7]: 86.9 nM
Kd [8]: 2200 nM
Kd [9]: 105 nM
Kd [10]: 10.7 nM
koff [10]: 0.00573 s⁻¹
Kd [11]: 81.9 nM
B1: RF16-226 YEY (Fc mutations M252Y, N286E, N434Y) (antibody, human IgG4 S228P, lambda)
heavy: EVQLVQSGAEVKKPGESLKISCKGSGYSFTSYWIGWVRQMPGKGLEWMGIIYPGDSDTRYSPSFQGQVTISADKSISTAYLQWSSLKASDTAMYYCARRFSYSSGWDMWGQGTLVTVSSASTKGPSVFPLAPCSRSTSESTAALGCLVKDYFPEPVTVSWNSGALTSGVHTFPAVLQSSGLYSLSSVVTVPSSSLGTKTYTCNVDHKPSNTKVDKRVESKYGPPCPPCPAPEFLGGPSVFLFPPKPKDTLYISRTPEVTCVVVDVSQEDPEVQFNWYVDGVEVHEAKTKPREEQFNSTYRVVSVLTVLHQDWLNGKEYKCKVSNKGLPSSIEKTISKAKGQPREPQVYTLPPSQEEMTKNQVSLTCLVKGFYPSDIAVEWESNGQPENNYKTTPPVLDSDGSFFLYSRLTVDKSRWQEGNVFSCSVMHEALHYHYTQKSLSLSLGK
light: SYELTQPPSVSVSPGQTARITCSGDALTSKYVAWYQQKSGLAPLLVIYEDTRRPSGIPAKFSGSSSGSVATLTISGAHGDDEADYYCYSTDASGHQRVFGGGTKLTVLSQPKAAPSVTLFPPSSEELQANKATLVCLISDFYPGAVTVAWKADGSPVKAGVETTKPSKQSNNKYAASSYLSLTPEQWKSHRSYSCQVTHEGSTVEKTVAPTECS

Kd [12]: 87.3 nM
Kd [13]: 8.8 nM
koff [13]: 0.00539 s⁻¹
kon [13]: 612000 M⁻¹ s⁻¹
Kd [14]: 10.2 nM
koff [14]: 0.00584 s⁻¹
Kd [3]: 8.7 nM
Kd [15]: 91.9 nM
kon [16]: 572000 M⁻¹ s⁻¹
Kd [8]: 1100 nM
Kd [17]: 83.1 nM
Kd [18]: 8.4 nM
koff [18]: 0.00526 s⁻¹
kon [18]: 626000 M⁻¹ s⁻¹
Kd [19]: 102 nM
Kd [20]: 8.5 nM
koff [20]: 0.00493 s⁻¹
kon [20]: 578000 M⁻¹ s⁻¹
B2: RF16-226 YPY (Fc mutations M252Y, V308P, N434Y) (antibody, human IgG4 S228P, lambda)
heavy: EVQLVQSGAEVKKPGESLKISCKGSGYSFTSYWIGWVRQMPGKGLEWMGIIYPGDSDTRYSPSFQGQVTISADKSISTAYLQWSSLKASDTAMYYCARRFSYSSGWDMWGQGTLVTVSSASTKGPSVFPLAPCSRSTSESTAALGCLVKDYFPEPVTVSWNSGALTSGVHTFPAVLQSSGLYSLSSVVTVPSSSLGTKTYTCNVDHKPSNTKVDKRVESKYGPPCPPCPAPEFLGGPSVFLFPPKPKDTLYISRTPEVTCVVVDVSQEDPEVQFNWYVDGVEVHNAKTKPREEQFNSTYRVVSVLTPLHQDWLNGKEYKCKVSNKGLPSSIEKTISKAKGQPREPQVYTLPPSQEEMTKNQVSLTCLVKGFYPSDIAVEWESNGQPENNYKTTPPVLDSDGSFFLYSRLTVDKSRWQEGNVFSCSVMHEALHYHYTQKSLSLSLGK
light: SYELTQPPSVSVSPGQTARITCSGDALTSKYVAWYQQKSGLAPLLVIYEDTRRPSGIPAKFSGSSSGSVATLTISGAHGDDEADYYCYSTDASGHQRVFGGGTKLTVLSQPKAAPSVTLFPPSSEELQANKATLVCLISDFYPGAVTVAWKADGSPVKAGVETTKPSKQSNNKYAASSYLSLTPEQWKSHRSYSCQVTHEGSTVEKTVAPTECS
